# Assay results taken from the supplement of paper PMC10065799, “High-throughput profiling of sequence recognition by tyrosine kinases and SH2 domains using bacterial peptide display” (eLife, 2023).
# Target: Jak2 (UniProt O60674)
# Assay: phosphorylation enrichment, bacterial display (enrichment ratio); higher = better substrate or ligand; peptides without Tyr show the background
# 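Also: 11-residue human phosphosite peptides and single-mutation variants displayed on the E. coli surface, counted by deep sequencing, each peptide's frequency after selection divided by its frequency in the unselected input library; frequency after pTyr selection over input frequency; kinase dosed for 20-30% of maximal phosphorylation in three min.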
# Chain of Jak2 (O60674 whole entry, looked up): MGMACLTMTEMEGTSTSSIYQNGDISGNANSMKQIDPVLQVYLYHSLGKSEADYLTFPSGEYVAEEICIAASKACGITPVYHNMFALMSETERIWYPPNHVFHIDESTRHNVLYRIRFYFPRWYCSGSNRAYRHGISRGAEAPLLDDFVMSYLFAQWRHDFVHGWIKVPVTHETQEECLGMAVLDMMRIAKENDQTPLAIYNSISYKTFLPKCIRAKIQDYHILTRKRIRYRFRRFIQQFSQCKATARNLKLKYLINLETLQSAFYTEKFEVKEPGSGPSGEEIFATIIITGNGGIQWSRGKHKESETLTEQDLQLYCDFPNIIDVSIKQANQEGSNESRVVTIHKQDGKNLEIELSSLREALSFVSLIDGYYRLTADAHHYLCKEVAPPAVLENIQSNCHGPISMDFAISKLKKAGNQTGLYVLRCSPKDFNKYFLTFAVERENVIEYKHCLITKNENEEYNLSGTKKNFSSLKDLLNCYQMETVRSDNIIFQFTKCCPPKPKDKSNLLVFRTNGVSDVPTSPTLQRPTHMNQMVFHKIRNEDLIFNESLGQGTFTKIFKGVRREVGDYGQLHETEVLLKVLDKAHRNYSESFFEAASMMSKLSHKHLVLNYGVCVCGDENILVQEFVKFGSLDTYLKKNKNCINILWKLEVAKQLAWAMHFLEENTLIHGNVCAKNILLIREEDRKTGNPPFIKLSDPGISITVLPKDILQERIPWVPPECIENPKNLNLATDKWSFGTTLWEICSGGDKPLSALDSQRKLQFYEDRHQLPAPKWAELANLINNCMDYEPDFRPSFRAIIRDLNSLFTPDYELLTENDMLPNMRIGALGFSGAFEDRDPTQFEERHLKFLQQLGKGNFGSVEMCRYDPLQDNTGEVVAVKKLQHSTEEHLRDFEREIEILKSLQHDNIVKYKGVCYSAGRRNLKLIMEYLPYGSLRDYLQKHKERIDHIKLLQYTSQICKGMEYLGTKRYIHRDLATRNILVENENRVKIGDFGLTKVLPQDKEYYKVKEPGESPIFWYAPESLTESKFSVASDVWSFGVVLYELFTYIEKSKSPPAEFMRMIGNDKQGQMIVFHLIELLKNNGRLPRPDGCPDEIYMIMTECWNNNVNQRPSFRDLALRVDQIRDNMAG
row,Sequence,phosphorylation enrichment
1,LKEIRYPPYTD [ALDH3B2_Y362_H361R],0.827
2,RHTRSYDFMEG [FGF7_Y56_YF],0.852
3,RGRSTYYWPSP [GAGE12J_Y9_R13S],0.656
4,SVTCTYCPALN [TP53_Y126_S127C],0.629
5,EYFENYIEELK [PARP4_Y218],1.5
6,CNSFRYGGGGG [NPPA_Y151],0.5
7,TKEPKYEGAGS [KIAA1210_Y1615],0.5
8,IVAREYFSEAD [CAMK2A_Y106_YF],0.965
9,HSSPVYVGRVV [TGM2_Y219_R214H],1
10,GEEIKDMLWLS [OTC_Y55_Y55D],0.822
11,NDDDVYRSLEE [VAV2_Y142],1.24
12,PLGPLYASSNP [INSR_Y992],0.941
13,AGIENYTSRFG [NKD2_Y256],0.465
14,VCDALYPPGPP,0.73
15,EVESPYEVRDY [GIGYF2_Y1168_H1171R],1.16
16,RPDSPYSRPHD [DOK2_Y271],0.436
17,EPVSDYINASI [PTPN11_Y304_N308S],0.953

row,Sequence,phosphorylation enrichment
1,RIFDFYSARKA [STOX1_Y858_YF],0.729
2,SFPPTYRFERG [INPPL1_Y661_YF],0.51
3,SLEKSYELLDG [ACTB_Y240_P243L],1.25
4,LKSEMYQKLLK [RGS13_Y146],0.92
5,PELINYHQPNS [BTK_Y361_H364P],0.829
6,ISTAGYSFPEL [EDAR_Y406_I408F],1.03
7,GSSEGYLHMVH [NIPBL_Y247_D246G],0.617
8,NCLREYVAGRF [CRB1_Y711],0.91
9,LFIDSYEKDVA [PGM1_Y521_YF],1.22
10,WDLSEYSFKDP [ITGA3_Y237_YF],1.21
11,AARVSYWLASG [DCHS1_Y1582_R1583W],0.825
12,LITTLYIDFLG [KCNQ1_Y267_G269D],1.39
13,CPSLLYSPVSS [CAMKK2_Y128_P127L],1.28
14,GEEIKYMLWLS [OTC_Y55],1.21
15,MGRVNYGAYIN [GLB1_Y485],0.54
16,LDPMVYMNDTS [PTK2B_Y834_K838T],1.48

# System: c-Abl (mouse)
# Assay: as above
row,Sequence,phosphorylation enrichment
1,LKEIRYPPYTD [ALDH3B2_Y362_H361R],0.749
2,RHTRSYDFMEG [FGF7_Y56_YF],1.3
3,RGRSTYYWPSP [GAGE12J_Y9_R13S],0.647
4,SVTCTYCPALN [TP53_Y126_S127C],0.683
5,EYFENYIEELK [PARP4_Y218],0.851
6,CNSFRYGGGGG [NPPA_Y151],0.597
7,TKEPKYEGAGS [KIAA1210_Y1615],0.496
8,IVAREYFSEAD [CAMK2A_Y106_YF],0.728
9,HSSPVYVGRVV [TGM2_Y219_R214H],1.17
10,GEEIKDMLWLS [OTC_Y55_Y55D],0.672
11,NDDDVYRSLEE [VAV2_Y142],0.898
12,PLGPLYASSNP [INSR_Y992],1.47
13,AGIENYTSRFG [NKD2_Y256],0.585
14,VCDALYPPGPP,0.766
15,EVESPYEVRDY [GIGYF2_Y1168_H1171R],0.765
16,RPDSPYSRPHD [DOK2_Y271],0.419
17,EPVSDYINASI [PTPN11_Y304_N308S],0.909

row,Sequence,phosphorylation enrichment
1,RIFDFYSARKA [STOX1_Y858_YF],1.04
2,SFPPTYRFERG [INPPL1_Y661_YF],0.556
3,SLEKSYELLDG [ACTB_Y240_P243L],0.956
4,LKSEMYQKLLK [RGS13_Y146],0.733
5,PELINYHQPNS [BTK_Y361_H364P],0.574
6,ISTAGYSFPEL [EDAR_Y406_I408F],0.737
7,GSSEGYLHMVH [NIPBL_Y247_D246G],0.491
8,NCLREYVAGRF [CRB1_Y711],0.651
9,LFIDSYEKDVA [PGM1_Y521_YF],1.36
10,WDLSEYSFKDP [ITGA3_Y237_YF],0.853
11,AARVSYWLASG [DCHS1_Y1582_R1583W],0.617
12,LITTLYIDFLG [KCNQ1_Y267_G269D],1.07
13,CPSLLYSPVSS [CAMKK2_Y128_P127L],1.06
14,GEEIKYMLWLS [OTC_Y55],1.19
15,MGRVNYGAYIN [GLB1_Y485],0.587
16,LDPMVYMNDTS [PTK2B_Y834_K838T],1.32

# Target: MERTK (UniProt Q12866)
# Assay: as above
# Chain of MERTK (Q12866 whole entry, looked up): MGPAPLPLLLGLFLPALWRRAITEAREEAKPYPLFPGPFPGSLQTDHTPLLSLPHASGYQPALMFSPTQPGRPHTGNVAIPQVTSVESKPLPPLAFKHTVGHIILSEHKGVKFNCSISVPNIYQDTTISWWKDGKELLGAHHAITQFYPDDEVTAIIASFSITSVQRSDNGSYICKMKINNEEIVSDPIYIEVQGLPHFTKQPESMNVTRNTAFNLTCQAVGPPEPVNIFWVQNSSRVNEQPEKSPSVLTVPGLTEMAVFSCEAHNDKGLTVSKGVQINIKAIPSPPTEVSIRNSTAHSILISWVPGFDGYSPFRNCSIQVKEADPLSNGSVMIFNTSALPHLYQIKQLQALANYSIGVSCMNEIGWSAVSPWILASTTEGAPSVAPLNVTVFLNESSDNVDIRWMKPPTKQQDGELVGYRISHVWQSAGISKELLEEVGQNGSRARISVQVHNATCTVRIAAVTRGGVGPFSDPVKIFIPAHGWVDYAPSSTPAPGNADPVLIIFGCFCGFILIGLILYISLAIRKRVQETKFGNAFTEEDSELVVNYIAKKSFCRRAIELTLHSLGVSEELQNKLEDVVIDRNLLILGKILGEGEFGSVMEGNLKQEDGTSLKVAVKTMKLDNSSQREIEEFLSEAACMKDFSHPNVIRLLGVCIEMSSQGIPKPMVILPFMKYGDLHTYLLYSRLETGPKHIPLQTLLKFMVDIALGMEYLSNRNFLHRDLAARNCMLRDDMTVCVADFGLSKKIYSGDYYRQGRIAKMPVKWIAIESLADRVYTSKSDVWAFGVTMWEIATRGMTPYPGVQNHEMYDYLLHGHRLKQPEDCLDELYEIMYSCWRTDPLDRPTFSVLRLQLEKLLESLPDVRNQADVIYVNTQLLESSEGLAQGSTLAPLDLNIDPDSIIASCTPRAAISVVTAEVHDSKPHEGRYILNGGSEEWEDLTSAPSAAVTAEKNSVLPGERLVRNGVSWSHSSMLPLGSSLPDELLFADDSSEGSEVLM
row,Sequence,phosphorylation enrichment
1,LKEIRYPPYTD [ALDH3B2_Y362_H361R],0.518
2,RHTRSYDFMEG [FGF7_Y56_YF],1.13
3,RGRSTYYWPSP [GAGE12J_Y9_R13S],6.32
4,SVTCTYCPALN [TP53_Y126_S127C],0.611
5,EYFENYIEELK [PARP4_Y218],0.422
6,CNSFRYGGGGG [NPPA_Y151],0.348
7,TKEPKYEGAGS [KIAA1210_Y1615],0.326
8,IVAREYFSEAD [CAMK2A_Y106_YF],0.472
9,HSSPVYVGRVV [TGM2_Y219_R214H],1.5
10,GEEIKDMLWLS [OTC_Y55_Y55D],0.425
11,NDDDVYRSLEE [VAV2_Y142],0.524
12,PLGPLYASSNP [INSR_Y992],1.49
13,AGIENYTSRFG [NKD2_Y256],0.418
14,VCDALYPPGPP,0.282
15,EVESPYEVRDY [GIGYF2_Y1168_H1171R],0.554
16,RPDSPYSRPHD [DOK2_Y271],0.369
17,EPVSDYINASI [PTPN11_Y304_N308S],0.494

row,Sequence,phosphorylation enrichment
1,RIFDFYSARKA [STOX1_Y858_YF],0.644
2,SFPPTYRFERG [INPPL1_Y661_YF],0.418
3,SLEKSYELLDG [ACTB_Y240_P243L],0.555
4,LKSEMYQKLLK [RGS13_Y146],0.348
5,PELINYHQPNS [BTK_Y361_H364P],0.657
6,ISTAGYSFPEL [EDAR_Y406_I408F],0.698
7,GSSEGYLHMVH [NIPBL_Y247_D246G],0.419
8,NCLREYVAGRF [CRB1_Y711],0.461
9,LFIDSYEKDVA [PGM1_Y521_YF],0.848
10,WDLSEYSFKDP [ITGA3_Y237_YF],0.445
11,AARVSYWLASG [DCHS1_Y1582_R1583W],0.443
12,LITTLYIDFLG [KCNQ1_Y267_G269D],0.704
13,CPSLLYSPVSS [CAMKK2_Y128_P127L],8.18
14,GEEIKYMLWLS [OTC_Y55],0.703
15,MGRVNYGAYIN [GLB1_Y485],0.315
16,LDPMVYMNDTS [PTK2B_Y834_K838T],0.7

# Target: Hck (UniProt P08631)
# Assay: as above
# Chain of Hck (P08631 whole entry, looked up): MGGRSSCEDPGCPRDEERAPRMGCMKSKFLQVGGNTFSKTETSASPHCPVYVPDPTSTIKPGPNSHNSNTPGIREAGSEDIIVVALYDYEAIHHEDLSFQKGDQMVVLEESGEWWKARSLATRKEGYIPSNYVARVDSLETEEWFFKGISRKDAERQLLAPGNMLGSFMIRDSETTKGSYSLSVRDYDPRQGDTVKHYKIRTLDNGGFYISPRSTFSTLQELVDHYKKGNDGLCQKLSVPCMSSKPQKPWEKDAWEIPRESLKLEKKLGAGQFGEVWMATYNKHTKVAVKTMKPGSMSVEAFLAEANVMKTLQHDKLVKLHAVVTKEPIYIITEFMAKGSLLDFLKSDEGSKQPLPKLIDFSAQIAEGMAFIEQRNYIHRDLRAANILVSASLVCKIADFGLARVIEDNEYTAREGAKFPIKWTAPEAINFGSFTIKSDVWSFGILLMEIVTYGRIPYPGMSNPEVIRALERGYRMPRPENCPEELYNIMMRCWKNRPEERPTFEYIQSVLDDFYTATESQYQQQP
row,Sequence,phosphorylation enrichment
1,LKEIRYPPYTD [ALDH3B2_Y362_H361R],0.678
2,RHTRSYDFMEG [FGF7_Y56_YF],0.857
3,RGRSTYYWPSP [GAGE12J_Y9_R13S],0.949
4,SVTCTYCPALN [TP53_Y126_S127C],0.495
5,EYFENYIEELK [PARP4_Y218],0.607
6,CNSFRYGGGGG [NPPA_Y151],0.349
7,TKEPKYEGAGS [KIAA1210_Y1615],0.372
8,IVAREYFSEAD [CAMK2A_Y106_YF],0.5
9,HSSPVYVGRVV [TGM2_Y219_R214H],6.86
10,GEEIKDMLWLS [OTC_Y55_Y55D],0.446
11,NDDDVYRSLEE [VAV2_Y142],0.665
12,PLGPLYASSNP [INSR_Y992],4.49
13,AGIENYTSRFG [NKD2_Y256],0.329
14,VCDALYPPGPP,0.288
15,EVESPYEVRDY [GIGYF2_Y1168_H1171R],1.48
16,RPDSPYSRPHD [DOK2_Y271],0.367
17,EPVSDYINASI [PTPN11_Y304_N308S],0.49

row,Sequence,phosphorylation enrichment
1,RIFDFYSARKA [STOX1_Y858_YF],1.33
2,SFPPTYRFERG [INPPL1_Y661_YF],0.369
3,SLEKSYELLDG [ACTB_Y240_P243L],0.595
4,LKSEMYQKLLK [RGS13_Y146],0.78
5,PELINYHQPNS [BTK_Y361_H364P],0.734
6,ISTAGYSFPEL [EDAR_Y406_I408F],0.461
7,GSSEGYLHMVH [NIPBL_Y247_D246G],0.396
8,NCLREYVAGRF [CRB1_Y711],0.411
9,LFIDSYEKDVA [PGM1_Y521_YF],0.816
10,WDLSEYSFKDP [ITGA3_Y237_YF],0.985
11,AARVSYWLASG [DCHS1_Y1582_R1583W],0.555
12,LITTLYIDFLG [KCNQ1_Y267_G269D],0.818
13,CPSLLYSPVSS [CAMKK2_Y128_P127L],6.11
14,GEEIKYMLWLS [OTC_Y55],0.645
15,MGRVNYGAYIN [GLB1_Y485],0.395
16,LDPMVYMNDTS [PTK2B_Y834_K838T],0.728
